Drawing on PMC9114370 (2022), this text covers Kd for one molecule.

This test concerns the target T1, TDP-43_(1–102) (human, UniProt Q13148 1-102, fluorescently labelled for MST).
T1 chain: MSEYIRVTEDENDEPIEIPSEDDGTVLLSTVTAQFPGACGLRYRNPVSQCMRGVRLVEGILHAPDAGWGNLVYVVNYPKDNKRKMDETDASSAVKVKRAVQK
As to the kind of experiment: MST.

B1: HspA5 substrate binding domain (SBD) (domain or fragment)
chain: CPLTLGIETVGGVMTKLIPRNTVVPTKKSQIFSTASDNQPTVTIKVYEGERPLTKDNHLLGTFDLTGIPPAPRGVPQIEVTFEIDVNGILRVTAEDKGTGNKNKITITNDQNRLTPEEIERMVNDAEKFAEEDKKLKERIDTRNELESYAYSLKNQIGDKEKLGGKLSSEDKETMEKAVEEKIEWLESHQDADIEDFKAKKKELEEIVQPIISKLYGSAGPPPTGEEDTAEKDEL
In the case of B1, the Kd came to 1440 nM.
